Four molecules from patent US20220411536A1 (NUMAB THERAPEUTICS, published 2022) can be followed below.

For experiment [1], the target named is CD137 on transgenic NF-kB Jurkat reporter cells (Homo sapiens (Human), UniProt Q07011 24-255). In words: cell-based or functional assay.
In experiment [2] the target is T1, human PD-L1 expressed on cells (CHO-PD-L1, HCC1954, HCC827) (human, UniProt Q9NZQ7 19-290).
T1 construct: whole, on cells; also called hPD-L1; PD-L1 expressing cells
In words: flow cytometry with human SA, inhibition of PD-1 binding to HCC827 cells. (In general: Flow cytometry measures light scatter and fluorescence of single cells or particles in a stream.)

The target in experiment [3] is T1, human PD-L1 expressed on cells …. In words: flow cytometry with human SA, inhibition of PD-1 binding to HCC1954 cells.
The target in experiment [4] is T2, recombinant human IL-23R (custom-made by Trenzyme) (human, UniProt Q5VWK5 24-355).
T2 sequence (looked up): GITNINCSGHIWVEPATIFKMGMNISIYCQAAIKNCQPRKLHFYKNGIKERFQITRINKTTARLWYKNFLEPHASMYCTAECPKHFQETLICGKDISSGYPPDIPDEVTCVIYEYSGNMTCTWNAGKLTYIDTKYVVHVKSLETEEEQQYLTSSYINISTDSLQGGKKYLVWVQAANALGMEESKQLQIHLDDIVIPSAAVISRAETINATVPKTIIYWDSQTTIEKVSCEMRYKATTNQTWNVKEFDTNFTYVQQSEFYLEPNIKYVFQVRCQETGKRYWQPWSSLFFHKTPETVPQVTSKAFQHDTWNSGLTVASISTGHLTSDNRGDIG
In words: SPR, immobilised IL-23R.

For experiment [5], the target named is T3, CD3e on Jurkat PD-1 NFAT reporter T cells or on T cells of human PBMCs (human, UniProt P07766 23-207). Briefly: cell-based or functional assay.
In experiment [6] the target is T1, human PD-L1 expressed on cells …. In words: flow cytometry, inhibition of biotinylated PD-1 binding to HCC1954 cells.
For experiment [7], the target named is T4, recombinant human CD3E ECD (SinoBiological, cat. 10977-H08H) (human, UniProt P07766 23-126).
T4 construct: extracellular domain; bought protein; also called CD3s
In words: SPR, immobilised CD3e ECD, two-state model (kd1). (In general: In SPR one partner is held on a chip, and binding of the other changes the refractive index at the surface.)

For experiment [8], the target named is T3, CD3e on Jurkat PD-1 NFAT reporter T …. Briefly: cell-based or functional assay. This is another data set of the same source.
Experiment [9] deals with T4, recombinant human CD3E ECD …. In words: SPR, immobilised CD3e ECD, two-state model (ka1).
Experiment [10] deals with T1, human PD-L1 expressed on cells …. Briefly: flow cytometry, inhibition of biotinylated PD-1 binding to HCC827 cells.
The target of experiment [11] is T5, recombinant human Her2 ECD (SinoBiological, cat. 10004-HCCH) (human, UniProt P04626 23-652).
T5 construct: extracellular domain; bought protein
In words: SPR, immobilised Her2 ECD.

Experiment [12] has as its target T6, Fc-tagged human PD-L1 extracellular domain (SinoBiological, cat. 10084-H02H) (human, UniProt Q9NZQ7 19-238).
T6 construct: extracellular domain; also called hPD-L1; not shown: Fc tag of the bought protein
In words: SPR, captured Fc-PD-L1 ECD, kinetic.

The target of experiment [13] is T4, recombinant human CD3E ECD …. In words: SPR, immobilised CD3e ECD, two-state model.
A further experiment addresses T7, human serum albumin (human, UniProt P02768 25-609).
T7 construct: also called HSA; human SA
In words: SPR, immobilised HSA, pH 5.5.

Another experiment deals with T8, mouse serum albumin (mouse, UniProt P07724 25-608).
T8 construct: also called MSA; mouse SA
In words: SPR, immobilised MSA, pH 5.5.

Experiment [14] has as its target T6, Fc-tagged human PD-L1 extracellular …. Briefly: SPR, captured Fc-PD-L1 ECD.

T4 sequence (P07766 23-126): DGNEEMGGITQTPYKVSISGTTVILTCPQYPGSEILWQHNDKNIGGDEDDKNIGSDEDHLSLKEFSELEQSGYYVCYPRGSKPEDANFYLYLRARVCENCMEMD
T8 sequence (P07724 25-608 limits assumed): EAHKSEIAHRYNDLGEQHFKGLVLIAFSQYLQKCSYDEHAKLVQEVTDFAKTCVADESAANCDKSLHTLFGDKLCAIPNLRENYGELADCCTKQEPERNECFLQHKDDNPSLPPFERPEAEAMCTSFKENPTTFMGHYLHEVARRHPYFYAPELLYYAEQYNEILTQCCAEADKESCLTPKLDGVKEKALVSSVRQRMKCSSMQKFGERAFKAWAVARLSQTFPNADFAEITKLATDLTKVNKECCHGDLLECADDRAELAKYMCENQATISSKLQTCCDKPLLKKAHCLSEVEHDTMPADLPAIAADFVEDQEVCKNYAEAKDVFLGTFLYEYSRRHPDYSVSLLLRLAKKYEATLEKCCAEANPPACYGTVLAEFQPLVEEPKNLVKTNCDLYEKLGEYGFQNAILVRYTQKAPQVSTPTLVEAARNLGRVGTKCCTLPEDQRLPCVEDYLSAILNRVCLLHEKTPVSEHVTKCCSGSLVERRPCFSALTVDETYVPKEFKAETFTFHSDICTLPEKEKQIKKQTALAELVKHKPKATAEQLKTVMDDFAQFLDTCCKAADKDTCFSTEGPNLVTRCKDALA

B1: PRO1778 (multispecific antibody)
chain 1: not shown
chain 2: DVVMTQSPSSLSASVGDRVTITCQASQIISSRSAWYQQKPGQPPKLLIYQASKLASGVPSRFSGSGSGTDFTLTISSLQPEDFATYYCQCTYIDSNFGAFGGGTKLTVLGGGGGSGGGGSGGGGSGGGGSEVQLVESGGGLVQPGGSLRLSCAASGFSFSSSYWICWVRQAPGKGLEWVGCVFTGDGTTYYASWAKGRFTISRDNSKNTVYLQMNSLRAEDTATYFCARPVSVYYYGMDLWGQGTLVTVSSGGGGSGGGGSQVQLQESGPGLVKPSETLSLTCKVSGFSFSSGYDMCWIRQPPGKGLEWIGCVVAGSVDITYYASWAKGRVTISVDSSKNQFSLKLSSVTAADTAVYYCARKDAYSDAFNLWGQGTLVTVSSGGGSGGGSEVQLVESGGGLVQPGGSLRLSCAASGFSFSANYYPCWVRQAPGKCLEWIGCIYGGSSDITYDANWTKGRFTISRDNSKNTVYLQMNSLRAEDTAVYYCARSAWYSGWGGDLWGQGTLVTVSS
As to B1, in experiment [1], the “EC50, NFkB reporter gene assay, HCC1954 cells” value amounted to 0.661 nM. Moreover, the IC50 was determined as 6.72 µg/mL in experiment [2] and 1.42 µg/mL in [3].

B2: PRO1498 (multispecific antibody)
chain 1: DIQMTQSPSSLSASVGDRVTITCQASENIYSFLAWYQQKPGKAPKLLIYSASKLAAGVPSRFSGSGSGTDFTLTISSLQPEDFATYYCQQTNRYSNPDIYNVFGTGTKVTVLGTVAAPSVFIFPPSDEQLKSGTASVVCLLNNFYPREAKVQWKVDNALQSGNSQESVTEQDSKDSTYSLSSTLTLSKADYEKHKVYACEVTHQGLSSPVTKSFNRGECGGGGSGGGGSDIQMTQSPSSLSASVGDRVTITCQSSQSVFSNNYLAWFQQKPGQSPKRLIYSASTLASGVPSRFSGSGSGTDFTLTISSLQPEDFATYYCLGSYACSSADCYVFGTGTKVTVLGGGGGSGGGGSGGGGSGGGGSEVQLVESGGGLVQPGGSLRLSCAASGFSLSSYDMSWVRQAPGKGLAWIGASYASGPTYYASWAKGRFTISRDNSKNTVYLQMNSLRAEDTATYFCARGGWTGTSHSNIWGQGTLVTVSS
chain 2: EVQLVESGGGLVQPGGSLRLSCAASGIDFNSNYYMCWVRQAPGKGLEWIGCIYVGSHVNTYYANWAKGRFTISRDNSKNTVYLQMNSLRAEDTAVYYCATSGSSVLYFKFWGQGTLVTVSSASTKGPSVFPLAPSSKSTSGGTAALGCLVKDYFPEPVTVSWNSGALTSGVHTFPAVLQSSGLYSLSSVVTVPSSSLGTQTYICNVNHKPSNTKVDKKVEPKSCGGGGSGGGGSDIQMTQSPSSLSASVGDRVTITCQASQSINDYLAWYQQKPGKAPKLLIYKASTLASGVPSRFSGSGSGTDFTLTISSLQPEDFATYYCQAAYIITDIDNVFGTGTKVTVLGGGGGSGGGGSGGGGSGGGGSQVQLQESGPGLVKPSETLSLTCKVSGFSFSSGYDMCWIRQPPGKGLEWIGCVVAGSVDITYYASWAKGRVTISVDSSKNQFSLKLSSVTAADTAVYYCARKDAYSDAFNLWGQGTLVTVSS
Take B2: the Kd in experiment [4] was 0.563 nM; in experiment [12], 332 nM; in experiment [13], 19.5 nM. The koff in experiment [4] came out at 0.000278 s⁻¹; in experiment [7] it was 0.00584 s⁻¹; in experiment [12], 0.000379 s⁻¹. The kon came to 495000 M⁻¹ s⁻¹ in experiment [4], 197000 M⁻¹ s⁻¹ in experiment [9] and 1140 M⁻¹ s⁻¹ in experiment [12]. Further, in experiment [5], the “IC50, NFAT reporter, HCC1954 cells” value turned out to be 172 nM. The “rel. max. activation vs PRO1497, NFAT reporter, HCC1954 cells” value in experiment [5] stood at 71%. Moreover, the IC50 in [6] was 7.05 µg/mL; in experiment [10], 8.54 µg/mL. In [8], the “fold weaker activation than PRO1497, NFAT reporter, HCC1954 cells” value amounted to 475 fold. Moreover, the binding result in experiment [11] is on record as “no binding (tested: 90 nM highest concentration)”. Also, the KD1 in experiment [13] was 29.6 nM. In addition, in experiment [13], the kd2 stood at 0.00198 s⁻¹.

B3: PRO1780 (multispecific antibody)
chain 1: not shown
chain 2: DIQMTQSPSSLSASVGDRVTITCQASQSISNRLAWYQQKPGKAPKLLIYSASTLASGVPSRFSGSGSGTDFTLTISSLQPEDFATYYCQSTYYGNDGNAFGCGTKVTVLGGGGGSGGGGSGGGGSGGGGSEVQLVESGGGLVQPGGSLRLSCAASGFSFSANYYPCWVRQAPGKCLEWIGCIYGGSSDITYDANWTKGRFTISRDNSKNTVYLQMNSLRAEDTAVYYCARSAWYSGWGGDLWGQGTLVTVSSGGGGSGGGGSQVQLQESGPGLVKPSETLSLTCKVSGFSFSSGYDMCWIRQPPGKGLEWIGCVVAGSVDITYYASWAKGRVTISVDSSKNQFSLKLSSVTAADTAVYYCARKDAYSDAFNLWGQGTLVTVSSGGGSGGGSEVQLVESGGGLVQPGGSLRLSCAASGFSFSSSYWICWVRQAPGKCLEWVGCVFTGDGTTYYASWAKGRFTISRDNSKNTVYLQMNSLRAEDTATYFCARPVSVYYYGMDLWGQGTLVTVSS
Take B3: the “EC50, NFkB reporter gene assay, HCC1954 cells” value in experiment [1] was 0.603 nM. The IC50 in [2] turned out to be 32.6 µg/mL; in experiment [3] it was 0.695 µg/mL.

B4: PRO1558 (multispecific antibody)
chain 1: DIQMTQSPSSLSASVGDRVTITCQASENIYSFLAWYQQKPGKAPKLLIYSASKLAAGVPSRFSGSGSGTDFTLTISSLQPEDFATYYCQQTNRYSNPDIYNVFGTGTKVTVLGGGGGSGGGGSGGGGSGGGGSEVQLVESGGGLVQPGGSLRLSCAASGIDFNSNYYMCWVRQAPGKGLEWIGCIYVGSHVNTYYANWAKGRFTISRDNSKNTVYLQMNSLRAEDTAVYYCATSGSSVLYFKFWGQGTLVTVSSGGGGSGGGGSDVVMTQSPSSLSASVGDRVTITCQASQIISSRSAWYQQKPGQPPKLLIYQASKLASGVPSRFSGSGSGTDFTLTISSLQPEDFATYYCQCTYIDSNFGAFGCGTKLTVLGGGSGGSDIQMTQSPSSLSASVGDRVTITCQSSQSVFSNNYLAWFQQKPGQSPKRLIYSASTLASGVPSRFSGSGSGTDFTLTISSLQPEDFATYYCLGSYACSSADCYVFGTGTKVTVLG
chain 2: not shown
B4: the Kd was determined as 0.868 nM in experiment [4]; 0.501 nM in the experiment with human serum albumin; 11.5 nM in the experiment with mouse serum albumin; 0.3 nM in experiment [11]; 7.95 nM in [13]. Besides, the koff in experiment [4] came out at 0.000493 s⁻¹; with human serum albumin, 0.000123 s⁻¹; in experiment [7], 0.00496 s⁻¹; in the experiment with mouse serum albumin, 0.0011 s⁻¹; in experiment [11] it was 6.07e-05 s⁻¹. For the same molecule, the kon in [4] was 568000 M⁻¹ s⁻¹; with human serum albumin it was 245000 M⁻¹ s⁻¹; in [9], 315000 M⁻¹ s⁻¹; with mouse serum albumin, 95800 M⁻¹ s⁻¹; in experiment [11] it was 202000 M⁻¹ s⁻¹. Further, the “IC50, NFAT reporter, HCC1954 cells” value in [5] was determined as 2.71 nM. The “rel. max. activation vs PRO1497, NFAT reporter, HCC1954 cells” value in experiment [5] was found to be 53%. Further, in experiment [14], the binding result is on record as “no binding”. Further, the KD1 in experiment [13] is 15.7 nM. Moreover, the kd2 in experiment [13] is 0.00335 s⁻¹.

The term IC50 denotes the point on the concentration scale where inhibition reaches its midpoint. The low end stands for higher potency, the high end for lower potency. What is called Kd is the free concentration of one partner at which half of the binding sites on the other are occupied at equilibrium, for simple one-to-one binding. Broadly, the koff is a measure of how fast the partners let go of each other. The kon is the rate constant with which the complex forms.
